Test results: patent US20110311550A1 (Scripps Research, published 2011)

B1: MAb AR1B (antibody, V domains shown)
VH: LESGGGLVQPGGSLRLSCEASGYYFSSFAMSWVRQTPGKGLEWVSSIAGGTLGRTSYRDSVKGRFTISRDNSKNTVFLHMNNLRPEDTAVYYCAKDPLLFAGGPNWFDHWGQGTLVTVSS
VL: not shown
notes: also called IgG1 of Fab D1
B2: MAb AR2A (antibody, V domains shown)
VH: LEQSGAEMKKPGASLKVSCKTSGYTFDDYGVTWVRQAPGQGLEWMGWISAYSGNTFYARKFQGRVTMTTDPSTRTAYMELRSLRSDDTAVYFCARDRGLAINGVVFPYFGLDVWGQGTTVTVSS
VL: ELTQSPVSLPVTPGEPASISCRSSQSLLHSNGNHYLDWYLQKPGQSPQLLMYLGSNRASGVPDRFSGSGSGTDFTLKISRVEAEDVGVYYCMQGLQTPWTFGQGTKVEIKR
notes: also called IgG1 of Fab G
B3: MAb AR3D (antibody, V domains shown)
VH: LEQSGAEVKKPGSSVKVSCKASGDTFRSYVITWARQAPGQGLEWMGAIIPFFGTTNLAQKFQGRVTITADESTKTVYMDLSSLRSDDTAVYYCAKAGDLSVGGVLAGGVPHLRHFDPWGQGTLVTVSS
VL: ELTQSPGTLSLSPGERATLSCRAGQTVASNSLAWYQHKPGQAPRLLIYGASIRASGIPDRFSGSGSGTDFTLTISRLEPEDFAVYYCQQYGLSSTFGQGTRLEIKR
notes: also called IgG1 of Fab L4
B4: MAb AR1A (antibody, V domains shown)
VH: LEQSGAEVKKPGSSVKVSCRASGSPYSSYTITWVRQAPGQGLEWMGGIILMTGKANYAQKFQGRVTITADRATATAYMEMSSLTSDDTAIYYCARDPYVYAGDDVRSLSRWGQGTPVIVSS
VL: not shown
notes: also called IgG1 of Fab B2

Key:
Assay in all cases: ELISA, alanine mutant E1E2
[1] = biological target: H77 E1E2 mutant W529A (HCV isolate H77, UniProt P27958 192-383; P27958 384-746)
[2] = biological target: H77 E1E2 mutant Q412A (HCV isolate H77, UniProt P27958 192-383; P27958 384-746)
[3] = biological target: H77 E1E2 mutant Y527A (HCV isolate H77, UniProt P27958 192-383; P27958 384-746)
[4] = biological target: H77 E1E2 mutant N423A (HCV isolate H77, UniProt P27958 192-383; P27958 384-746)
[5] = biological target: H77 E1E2 mutant R483A (HCV isolate H77, UniProt P27958 192-383; P27958 384-746)
[6] = biological target: H77 E1E2 mutant T534A (HCV isolate H77, UniProt P27958 192-383; P27958 384-746)
[7] = biological target: H77 E1E2 mutant P484A (HCV isolate H77, UniProt P27958 192-383; P27958 384-746)
[8] = biological target: H77 E1E2 mutant P544A (HCV isolate H77, UniProt P27958 192-383; P27958 384-746)
[9] = biological target: H77 E1E2 mutant V538A (HCV isolate H77, UniProt P27958 192-383; P27958 384-746)
[10] = biological target: H77 E1E2 mutant N540A (HCV isolate H77, UniProt P27958 192-383; P27958 384-746)
[11] = biological target: H77 E1E2 mutant G523A (HCV isolate H77, UniProt P27958 192-383; P27958 384-746)
[12] = biological target: H77 E1E2 mutant S419A (HCV isolate H77, UniProt P27958 192-383; P27958 384-746)
[13] = biological target: H77 E1E2 mutant I414A (HCV isolate H77, UniProt P27958 192-383; P27958 384-746)
[14] = biological target: H77 E1E2 mutant I422A (HCV isolate H77, UniProt P27958 192-383; P27958 384-746)
[15] = biological target: H77 E1E2 mutant L413A (HCV isolate H77, UniProt P27958 192-383; P27958 384-746)
[16] = biological target: H77 E1E2 mutant H421A (HCV isolate H77, UniProt P27958 192-383; P27958 384-746)
[17] = biological target: H77 E1E2 mutant G530A (HCV isolate H77, UniProt P27958 192-383; P27958 384-746)
[18] = biological target: H77 E1E2 mutant T416A (HCV isolate H77, UniProt P27958 192-383; P27958 384-746)
[19] = biological target: H77 E1E2 mutant G547A (HCV isolate H77, UniProt P27958 192-383; P27958 384-746)
[20] = biological target: H77 E1E2 mutant P491A (HCV isolate H77, UniProt P27958 192-383; P27958 384-746)
[21] = biological target: H77 E1E2 mutant G418A (HCV isolate H77, UniProt P27958 192-383; P27958 384-746)
[22] = biological target: H77 E1E2 mutant F550A (HCV isolate H77, UniProt P27958 192-383; P27958 384-746)
[23] = biological target: H77 E1E2 mutant S424A (HCV isolate H77, UniProt P27958 192-383; P27958 384-746)
[24] = biological target: H77 E1E2 mutant N415A (HCV isolate H77, UniProt P27958 192-383; P27958 384-746)
[25] = biological target: H77 E1E2 mutant T526A (HCV isolate H77, UniProt P27958 192-383; P27958 384-746)
[26] = biological target: H77 E1E2 mutant N532A (HCV isolate H77, UniProt P27958 192-383; P27958 384-746)
[27] = biological target: H77 E1E2 mutant R543A (HCV isolate H77, UniProt P27958 192-383; P27958 384-746)
[28] = biological target: H77 E1E2 mutant W549A (HCV isolate H77, UniProt P27958 192-383; P27958 384-746)

| Binder | binding vs wild-type E1E2 [1] | binding vs wild-type E1E2 [2] | binding vs wild-type E1E2 [3] | binding vs wild-type E1E2 [4] | binding vs wild-type E1E2 [5] | binding vs wild-type E1E2 [6] | binding vs wild-type E1E2 [7] | binding vs wild-type E1E2 [8] | binding vs wild-type E1E2 [9] | binding vs wild-type E1E2 [10] | binding vs wild-type E1E2 [11] | binding vs wild-type E1E2 [12] | binding vs wild-type E1E2 [13] | binding vs wild-type E1E2 [14] | binding vs wild-type E1E2 [15] | binding vs wild-type E1E2 [16] | binding vs wild-type E1E2 [17] | binding vs wild-type E1E2 [18] | binding vs wild-type E1E2 [19] | binding vs wild-type E1E2 [20] | other results |
| --- | --- | --- | --- | --- | --- | --- | --- | --- | --- | --- | --- | --- | --- | --- | --- | --- | --- | --- | --- | --- | --- |
| B1 | 94% | 48% | 83% | 38% | 32% | 49% | 45% | 16% | 52% | 25% | 33% | 118% | 147% | 58% | 109% | 72% | 50% | 99% | 0% | 118% | binding vs wild-type E1E2 [21]: 143%; binding vs wild-type E1E2 [22]: 257%; binding vs wild-type E1E2 [23]: 103%; binding vs wild-type E1E2 [24]: 131%; binding vs wild-type E1E2 [25]: 48%; binding vs wild-type E1E2 [26]: 73%; binding vs wild-type E1E2 [27]: 135%; binding vs wild-type E1E2 [28]: 0% |
| B2 | 132% | 95% | 149% | 69% | 68% | 84% | 77% | 126% | 62% | 30% | 129% | 93% | 180% | 95% | 92% | 84% | 53% | 99% | 83% | 123% | binding vs wild-type E1E2 [21]: 83%; binding vs wild-type E1E2 [22]: 156%; binding vs wild-type E1E2 [23]: 91%; binding vs wild-type E1E2 [24]: 122%; binding vs wild-type E1E2 [25]: 101%; binding vs wild-type E1E2 [26]: 58%; binding vs wild-type E1E2 [27]: 125%; binding vs wild-type E1E2 [28]: 151% |
| B3 | 88% | 44% | 119% | 65% | 151% | 181% | 90% | 318% | 95% | 56% | 48% | 73% | 126% | 113% | 83% | 87% | 24% | 90% | 202% | 204% | binding vs wild-type E1E2 [21]: 60%; binding vs wild-type E1E2 [22]: 320%; binding vs wild-type E1E2 [23]: 6%; binding vs wild-type E1E2 [24]: 131%; binding vs wild-type E1E2 [25]: 135%; binding vs wild-type E1E2 [26]: 159%; binding vs wild-type E1E2 [27]: 276%; binding vs wild-type E1E2 [28]: 274% |
| B4 | 367% | 145% | 61% | 79% | 64% | 100% | 38% | 69% | 17% | 0% | 112% | 84% | 128% | 106% | 103% | 167% | 227% | 23% | 34% | 119% | binding vs wild-type E1E2 [21]: 51%; binding vs wild-type E1E2 [22]: 379%; binding vs wild-type E1E2 [23]: 103%; binding vs wild-type E1E2 [24]: 106%; binding vs wild-type E1E2 [25]: 81%; binding vs wild-type E1E2 [26]: 82%; binding vs wild-type E1E2 [27]: 239%; binding vs wild-type E1E2 [28]: 0% |
